Results on one molecule are retold here after publication PMC9237740, “SNARE SYP132 mediates divergent traffic of plasma membrane H^+-ATPase AHA1 and antimicrobial PR1 during bacterial pathogenesis” (Plant Physiology, 2022).

The test concerns the target T1, GFP-fused SYP132 (SYNTAXIN OF PLANTS132) expressed under its native promoter (Arabidopsis thaliana, UniProt Q8VZU2 1-304).
T1 construct: SYNTAXIN OF PLANTS132 (SYP132), Arabidopsis thaliana, At5g08080; also called GFP-SYP132; SYP132p:GFP-SYP132; source: Arabidopsis SYP132p:GFP-SYP132 transgenic line, in leaf lysate
T1 sequence (looked up): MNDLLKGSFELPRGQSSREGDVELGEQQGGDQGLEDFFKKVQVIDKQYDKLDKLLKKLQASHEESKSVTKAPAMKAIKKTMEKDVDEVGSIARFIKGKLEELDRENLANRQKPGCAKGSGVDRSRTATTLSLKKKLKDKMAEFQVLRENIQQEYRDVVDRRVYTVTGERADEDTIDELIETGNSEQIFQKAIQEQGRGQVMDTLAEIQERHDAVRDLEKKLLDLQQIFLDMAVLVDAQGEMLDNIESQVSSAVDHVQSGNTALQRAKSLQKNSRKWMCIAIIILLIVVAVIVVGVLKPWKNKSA
Put plainly: co-IP; GFP-Trap agarose beads saturated with GFP-tagged bait from Arabidopsis leaf lysates; plants treated 24 h without or with Pst DC3000 in 10 mM MgCl2; binding buffer PBS pH 7.45, 0.01% Triton X-100, 0.05 mM DTT, 0.01% CHAPS, 1 h at 4°C; washes with additional 150 mM NaCl; bound proteins detected by immunoblot. The conditions noted are these: partners not purified.

B1: PM H+-ATPase 1 (AHA1), native (natural protein, UniProt P20649 1-949, looked up)
chain: MSGLEDIKNETVDLEKIPIEEVFQQLKCTREGLTTQEGEDRIVIFGPNKLEEKKESKILKFLGFMWNPLSWVMEAAALMAIALANGDNRPPDWQDFVGIICLLVINSTISFIEENNAGNAAAALMAGLAPKTKVLRDGKWSEQEAAILVPGDIVSIKLGDIIPADARLLEGDPLKVDQSALTGESLPVTKHPGQEVFSGSTCKQGEIEAVVIATGVHTFFGKAAHLVDSTNQVGHFQKVLTSIGNFCICSIAIGIAIEIVVMYPIQHRKYRDGIDNLLVLLIGGIPIAMPTVLSVTMAIGSHRLSQQGAITKRMTAIEEMAGMDVLCSDKTGTLTLNKLSVDKNLVEVFCKGVEKDQVLLFAAMASRVENQDAIDAAMVGMLADPKEARAGIREVHFLPFNPVDKRTALTYIDSDGNWHRVSKGAPEQILDLANARPDLRKKVLSCIDKYAERGLRSLAVARQVVPEKTKESPGGPWEFVGLLPLFDPPRHDSAETIRRALNLGVNVKMITGDQLAIGKETGRRLGMGTNMYPSAALLGTDKDSNIASIPVEELIEKADGFAGVFPEHKYEIVKKLQERKHIVGMTGDGVNDAPALKKADIGIAVADATDAARGASDIVLTEPGLSVIISAVLTSRAIFQRMKNYTIYAVSITIRIVFGFMLIALIWEFDFSAFMVLIIAILNDGTIMTISKDRVKPSPTPDSWKLKEIFATGIVLGGYQAIMSVIFFWAAHKTDFFSDKFGVRSIRDNNDELMGAVYLQVSIISQALIFVTRSRSWSFVERPGALLMIAFVIAQLVATLIAVYADWTFAKVKGIGWGWAGVIWIYSIVTYFPQDILKFAIRYILSGKAWASLFDNRTAFTTKKDYGIGEREAQWAQAQRTLHGLQPKEDVNIFPEKGSYRELSEIAEQAKRRAEIARLRELHTLKGHVESVAKLKGLDIDTAGHHYTV
notes: Plasma membrane H+-ATPase 1 (AHA1), Arabidopsis thaliana, At2g18960; detected with anti-AHA1 antibodies at ~100 kDa; also called AHA1 isoform; plasma membrane H+-ATPase AHA1; source: endogenous, Arabidopsis leaf lysate
On to B1, for which the “fold change of Co-IP bound/bait after Pst DC3000 infection relative to buffer control” value was around 2.5 fold.
